From patent publication US20180118786A1 (ECOLE POLYTECHNIQUE FEDERALE DE LAUSANNE EPFL, published 2018)
Starred links: 1 amine or outer side, 2 acyl side, 3 side chain; linkers in the order of their positions; H or OH if unused. Positions of bridges follow the written chain, without caps; N, C: chain ends. Non-standard residues stand in square brackets, D forms with d. No end group written: not given here. TATA = O=C(CC[*:1])N1CN(C(=O)CC[*:2])CN(C(=O)CC[*:3])C1

Assays:
[1] = target: trypsin (human, UniProt P07477 24-247); assay: protease inhibition assay
[2] = target: T1, mouse FXIIa (mouse, UniProt Q80YC5 20-597, limits assumed); assay: protease inhibition assay, fluorogenic substrate
T1 construct: also called mouse α-FXIIa (MFXIIA; Molecular Innovations)
T1 sequence (looked up): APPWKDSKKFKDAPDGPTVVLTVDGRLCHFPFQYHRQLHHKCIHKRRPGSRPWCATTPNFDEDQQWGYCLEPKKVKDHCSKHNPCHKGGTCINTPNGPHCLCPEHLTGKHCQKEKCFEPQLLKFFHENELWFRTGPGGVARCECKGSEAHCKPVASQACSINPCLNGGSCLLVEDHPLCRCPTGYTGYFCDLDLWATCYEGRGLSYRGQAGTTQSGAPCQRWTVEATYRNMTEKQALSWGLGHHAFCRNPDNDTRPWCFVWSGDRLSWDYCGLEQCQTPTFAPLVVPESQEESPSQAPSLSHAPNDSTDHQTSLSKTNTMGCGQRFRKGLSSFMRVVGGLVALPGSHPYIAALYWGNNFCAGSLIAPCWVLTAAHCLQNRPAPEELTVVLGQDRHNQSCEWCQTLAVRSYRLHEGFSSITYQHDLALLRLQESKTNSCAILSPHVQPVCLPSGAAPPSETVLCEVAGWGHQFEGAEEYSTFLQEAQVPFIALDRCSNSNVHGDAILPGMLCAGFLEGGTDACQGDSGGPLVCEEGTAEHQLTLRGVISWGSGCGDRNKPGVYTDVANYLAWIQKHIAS

[3] = target: T2, plasma kallikrein (human, UniProt P03952 20-638); assay: protease inhibition assay, specificity testing
T2 construct: also called PK
T2 sequence (P03952 20-638 limits assumed): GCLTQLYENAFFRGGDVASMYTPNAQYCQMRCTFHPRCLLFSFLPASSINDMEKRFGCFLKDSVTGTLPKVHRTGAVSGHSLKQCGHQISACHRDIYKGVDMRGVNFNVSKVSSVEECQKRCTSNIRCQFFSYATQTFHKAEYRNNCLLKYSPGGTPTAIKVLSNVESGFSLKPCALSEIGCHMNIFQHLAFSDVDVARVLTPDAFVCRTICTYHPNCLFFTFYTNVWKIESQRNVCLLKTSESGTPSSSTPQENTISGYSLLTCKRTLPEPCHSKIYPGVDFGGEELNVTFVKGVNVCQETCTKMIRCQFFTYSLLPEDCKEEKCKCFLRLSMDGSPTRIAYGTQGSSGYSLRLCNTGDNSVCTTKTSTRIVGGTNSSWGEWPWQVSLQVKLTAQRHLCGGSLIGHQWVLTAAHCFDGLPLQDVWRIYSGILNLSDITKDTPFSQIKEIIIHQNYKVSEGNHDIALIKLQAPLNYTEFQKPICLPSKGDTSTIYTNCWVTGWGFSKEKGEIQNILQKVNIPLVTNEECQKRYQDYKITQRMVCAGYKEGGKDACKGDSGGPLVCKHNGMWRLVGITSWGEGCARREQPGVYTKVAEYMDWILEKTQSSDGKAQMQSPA

[4] = target: T1, mouse FXIIa; assay: protease inhibition assay
[5] = target: T3, human β-FXIIa (HFXIIAB; Molecular Innovations) (human, UniProt P00748 354-362; P00748 373-615, limits assumed); assay: protease inhibition assay
T3 construct: domain: catalytic domain; Bought; also called human b-FXIIa; human FXIIa
T3 sequence (P00748 373-615 limits assumed, one chain of several): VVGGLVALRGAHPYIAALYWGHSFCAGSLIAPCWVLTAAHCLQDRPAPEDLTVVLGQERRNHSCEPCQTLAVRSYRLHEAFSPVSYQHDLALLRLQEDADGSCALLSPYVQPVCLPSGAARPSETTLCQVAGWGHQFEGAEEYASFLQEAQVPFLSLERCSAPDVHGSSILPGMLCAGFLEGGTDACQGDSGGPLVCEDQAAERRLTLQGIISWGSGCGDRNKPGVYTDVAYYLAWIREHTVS

[6] = target: T3, human β-FXIIa (HFXIIAB; Molecular …); assay: protease inhibition assay; remark: listed apart in the source
[7] = target: T3, human β-FXIIa (HFXIIAB; Molecular …); assay: protease inhibition assay; remark: listed apart in the source
[8] = target: T3, human β-FXIIa (HFXIIAB; Molecular …); assay: protease inhibition assay (FIG. 6)
[9] = target: plasmin (human, UniProt P00747 97-810, limits assumed); assay: protease inhibition assay
plasmin, sequence (P00747 97-810 limits assumed): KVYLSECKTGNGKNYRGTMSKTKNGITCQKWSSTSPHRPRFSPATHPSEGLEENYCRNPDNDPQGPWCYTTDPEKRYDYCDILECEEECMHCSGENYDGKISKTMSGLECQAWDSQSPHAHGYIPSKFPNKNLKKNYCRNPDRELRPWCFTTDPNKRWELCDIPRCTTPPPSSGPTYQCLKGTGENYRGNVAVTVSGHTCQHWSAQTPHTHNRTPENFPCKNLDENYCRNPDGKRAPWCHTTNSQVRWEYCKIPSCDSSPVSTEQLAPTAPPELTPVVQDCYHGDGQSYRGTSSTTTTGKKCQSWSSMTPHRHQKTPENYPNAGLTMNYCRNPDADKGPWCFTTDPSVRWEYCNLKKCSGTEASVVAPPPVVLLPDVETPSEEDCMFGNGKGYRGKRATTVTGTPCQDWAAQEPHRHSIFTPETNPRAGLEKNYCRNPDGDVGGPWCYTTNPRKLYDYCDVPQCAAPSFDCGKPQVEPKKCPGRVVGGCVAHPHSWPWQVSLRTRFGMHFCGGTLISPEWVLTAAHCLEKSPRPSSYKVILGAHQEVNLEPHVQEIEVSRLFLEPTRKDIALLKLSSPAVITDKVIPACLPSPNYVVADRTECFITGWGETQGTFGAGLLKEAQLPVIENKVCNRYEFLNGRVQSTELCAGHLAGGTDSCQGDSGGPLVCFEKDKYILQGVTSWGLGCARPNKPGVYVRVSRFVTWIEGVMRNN

[10] = target: T4, factor XIa (human, UniProt P03951 19-625); assay: protease inhibition assay
T4 construct: also called FXIa

B1: FXII618 (peptide)
peptide: H-RCFRLPCRQLRCR-NH2
modifications: linker 2-7-12 via TATA
notes: Bicyclic; free N-terminus; also called peptide 1; bicyclic peptide 1
With B1 the Ki [1] was 5000 nM, the Ki [2] was 252 nM and the binding result [3] was “binds”.

B2: JS17m (FXII618, Arg8 to His) (peptide)
peptide: H-RCFRLPCHQLRCR-NH2
modifications: linker 2-7-12 via TATA
SMILES: CC(C)C[C@@H]1NC(=O)[C@H](CCC(N)=O)NC(=O)[C@H](Cc2c[nH]cn2)NC(=O)[C@@H]2CSCCC(=O)N3CN(CN(C3)C(=O)CCSC[C@H](NC(=O)[C@@H](N)CCCNC(=N)N)C(=O)N[C@@H](Cc3ccccc3)C(=O)N[C@@H](CCCNC(=N)N)C(=O)N[C@@H](CC(C)C)C(=O)N3CCC[C@H]3C(=O)N2)C(=O)CCSC[C@@H](C(=O)N[C@@H](CCCNC(=N)N)C(N)=O)NC(=O)[C@H](CCCNC(=N)N)NC1=O
notes: also called Arg8→His (H)
Work on B2 yielded a Ki [4] of 80 nM and a Ki [5] of 21.6 nM.

B3: JS7m (FXII618, Arg1 to D-Arg-D-Ser) (peptide)
peptide: H-[dR][dS]CFRLPCRQLRCR-NH2
modifications: linker 3-8-13 via TATA
SMILES: CC(C)C[C@@H]1NC(=O)[C@H](CCC(N)=O)NC(=O)[C@H](CCCNC(=N)N)NC(=O)[C@@H]2CSCCC(=O)N3CN(CN(C3)C(=O)CCSC[C@H](NC(=O)[C@@H](CO)NC(=O)[C@H](N)CCCNC(=N)N)C(=O)N[C@@H](Cc3ccccc3)C(=O)N[C@@H](CCCNC(=N)N)C(=O)N[C@@H](CC(C)C)C(=O)N3CCC[C@H]3C(=O)N2)C(=O)CCSC[C@@H](C(=O)N[C@@H](CCCNC(=N)N)C(N)=O)NC(=O)[C@H](CCCNC(=N)N)NC1=O
notes: also called Arg1→D-Arg-D-Ser (rs)
With B3 the Ki [6] was 18 nM.

B4: peptide 18 (peptide 2, Pro6 to leucine) (peptide)
peptide: RCFRLLCRQLRCRW-NH2
modifications: linker 2-7-12 via TATA; N-terminus assumed
SMILES: CC(C)C[C@@H]1NC(=O)[C@H](CCC(N)=O)NC(=O)[C@H](CCCNC(=N)N)NC(=O)[C@@H]2CSCCC(=O)N3CN(CN(C3)C(=O)CCSC[C@H](NC(=O)[C@@H](N)CCCNC(=N)N)C(=O)N[C@@H](Cc3ccccc3)C(=O)N[C@@H](CCCNC(=N)N)C(=O)N[C@@H](CC(C)C)C(=O)N[C@@H](CC(C)C)C(=O)N2)C(=O)CCSC[C@@H](C(=O)N[C@@H](CCCNC(=N)N)C(=O)N[C@@H](Cc2c[nH]c3ccccc23)C(N)=O)NC(=O)[C@H](CCCNC(=N)N)NC1=O
In the case of B4, the “fold reduction of activity vs peptide 2” value [7] is reported as less than 2 fold and the Ki [8] is reported as less than 100 nM.

B5: corn trypsin inhibitor (other, UniProt P01088 29-155, looked up)
chain: SAGTSCVPGWAIPHNPLPSCRWYVTSRTCGIGPRLPWPELKRRCCRELADIPAYCRCTALSILMDGAIPPGPDAQLEGRLEDLPGCPREVQRGFAATLVTEAECNLATISGVAECPWILGGGTMPSK
notes: also called CTI
B5 showed a Ki [1] of 7 nM, a Ki [9] of 5000 nM and a Ki [10] of 12500 nM.
